Measured values: publication PMC12112095, “Insights into Chemoreceptor MCP2201-Sensing D-Malate” (International Journal of Molecular Sciences, 2025)
Blank lines part the entries; values can stand above or below the compound they belong to.

Key:
[1] = molecular target: ligand-binding domain of MCP2201 (MCP2201 LBD) (Comamonas testosteroni CNB-1); assay: AUC; in the presence of D-malate; Beckman XL-I, 60,000 x g, 7 h, 4 °C
[2] = molecular target: ligand-binding domain of MCP2201 (MCP2201 LBD) (Comamonas testosteroni CNB-1); assay: ITC; dilution: 1.1 mM protein in 10 mM D-malate, 20 mM Tris pH 7.5, 150 mM NaCl injected into the same buffer, 25 °C; oligomer dissociation model; dimer to monomers
[3] = molecular target: ligand-binding domain of MCP2201 (MCP2201 LBD) (Comamonas testosteroni CNB-1); assay: AUC; in the presence of L-malate; Beckman XL-I, 60,000 x g, 7 h, 4 °C
[4] = molecular target: ligand-binding domain of MCP2201 (MCP2201 LBD) (Comamonas testosteroni CNB-1); assay: AUC; ligand-free; Beckman XL-I, 60,000 x g, 7 h, 4 °C
[5] = molecular target: T1, MCP2201 (Comamonas thiooxydans, UniProt A0ABF7PFR0, T105A); assay: ITC; type: binding
T1 construct: gene CtCNB1_2201; T105A LBD

[6] = molecular target: T2, MCP2201 (Comamonas thiooxydans, UniProt A0ABF7PFR0); assay: analytical ultracentrifugation (ligand-induced LBD dimerization); type: binding
T2 construct: gene CtCNB1_2201; LBD (residues 58–203), N-terminal His6-tag
T2 sequence (A0ABF7PFR0 58-203): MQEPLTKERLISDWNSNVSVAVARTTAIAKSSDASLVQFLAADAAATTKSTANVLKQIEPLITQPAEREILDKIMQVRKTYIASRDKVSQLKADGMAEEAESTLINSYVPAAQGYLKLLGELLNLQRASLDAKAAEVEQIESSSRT

[7] = molecular target: T2, MCP2201; assay: ITC; crystal structure at […] Å; type: binding
[8] = molecular target: MCP2201 LBD mutant T105A (T105A LBD) (Comamonas testosteroni CNB-1); assay: AUC; in the presence of D-malate; Beckman XL-I, 60,000 x g, 7 h, 4 °C
[9] = molecular target: MCP2201 LBD mutant T105A (T105A LBD) (Comamonas testosteroni CNB-1); assay: AUC; ligand-free; Beckman XL-I, 60,000 x g, 7 h, 4 °C
[10] = molecular target: MCP2201 LBD mutant T105A (T105A LBD) (Comamonas testosteroni CNB-1); assay: AUC; in the presence of citrate; Beckman XL-I, 60,000 x g, 7 h, 4 °C

stoichiometry N [1]: 2
Kd [2]: 0.027 µM
stoichiometry N [3]: 2
stoichiometry N [4]: 2
Compound: ligand-binding domain of MCP2201 (MCP2201 LBD) (domain or fragment)

Compound: O=C(O)CC(O)(CC(=O)O)C(=O)O [citrate]
Kd [5]: 670 ± 270 µM

Compound: O=C(O)CC(O)C(=O)O (stereo in doubt) [L-malate]
analytical ultracentrifugation (ligand-induced LBD dimerization) [6]: the D-malate-bound MCP2201 LBD predominately occurred as a dimer, the same as the L-malate-bound LBD (Figure 3B)

Compound: O=C(O)C[C@@H](O)C(=O)O [D-malate]
Kd [5]: 5.5 ± 0.01 µM
Kd [7]: 40 ± 3.3 µM

stoichiometry N [8]: 2
stoichiometry N [9]: 2
stoichiometry N [10]: 2
Compound: MCP2201 LBD mutant T105A (T105A LBD) (domain or fragment)
